Measurements reported in patent publication US20060269557A1 (CITY OF HOPE, published 2006).

What was measured:
[1] = molecular target: T1, soluble PSCA fused human IgG1 or mouse IgG2a Fc (UniProt O43653 12-86, limits assumed); assay: relative binding affinity, competitive ELISA
T1 construct: also called PSCA-Fc; not shown: human IgG1 Fc or mouse IgG2a Fc
T1 sequence (looked up): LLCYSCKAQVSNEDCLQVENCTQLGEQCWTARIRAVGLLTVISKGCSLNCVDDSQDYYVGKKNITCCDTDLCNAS
Description: (§1) The relative binding affinities of the antibodies were measured by competitive ELISA using biotinylated mu1G8 as tracer. Wells were coated with soluble PSCA fused human IgG1 or mouse IgG2a Fc that had been expressed in pEE12 as described above and purified by Protein A affinity chromatography (Poros2.0; PerkinElmer, Wellesley, Mass.). A fixed concentration of biotinylated parental antibody and increasing concentrations of non-biotinylated competitors were used as previously described (Olafsen 2004). Detection of biotinylated antibody was made with alkaline phosphatase-conjugated streptavidin (Jackson ImmunoResearch Laboratories).

[2] = molecular target: T1, soluble PSCA fused human IgG1 or mouse …; assay: competitive ELISA on coated PSCA-Fc, biotinylated mu1G8 as tracer
Description: as §1

B1: humanized 1G8 antibody hu1G8-B (antibody, V domains shown)
VH: EVQLVESGGGLVQPGGSLRLSCAASGFNIKDYYIHWVRQAPGKGLEWVAWIDPENGDTEFVPKFQGRATISADTSKNTAYLQMNSLRAEDTAVYYCKTGGFWGQGTLVTVSS
VL: DIQLTQSPSSLSASVGDRVTITCSASSSVRFIHWYQQKPGKAPKRLIYDTSKLASGVPSRFSGSGSGTDFTLTISSLQPEDFATYYCQQWSSSPFTFGQGTKVEIK
notes: Labelled with 124I in the immunoreactivity assays; also called M6B; clone 2B3
What does the source list for B1?
fold higher relative binding affinity compared to hu1G8-A [1]: 6 fold; fold lower binding affinity than mu1G8 [1]: ~5 fold; Kd [2]: ~25 nM

B2: humanized 1G8 antibody hu1G8-A (antibody, V domains shown)
VH: EVQLVESGGGLVQPGGSLRLSCAASGFNIKDYYIHWVRQAPGKGLEWVAWIDPENGDTEFADSVKGRFTISADTSKNTAYLQMNSLRAEDTAVYYCKTGGFWGQGTLVTVSS
VL: DIQLTQSPSSLSASVGDRVTITCSASSSVRFIHWYQQKPGKAPKRLIYDTSKLASGVPSRFSGSGSGTDFTLTISSLQPEDFATYYCQQWSSSPFTFGQGTKVEIK
notes: also called M6A
Which Kd [2] does the source give for B2 here?
The Kd was ~150 nM.

B3: murine monoclonal antibody 1G8 (antibody, V domains shown)
VH: EVQLQQSGAELVRSGASVKLSCTASGFNIKDYYIHWVNQRPDQGLEWIGWIDPENGDTEFVPKFQGKATMTADIFSNTAYLHLSSLTSEDTAVYYCKTGGFWGQGTLVTVSA
VL: QVVLTQSPAIMSASPGEKVTMACSASSSVRFIHWYQQKSGTSPKRWIYDTSKLASGVPTRFSGSGSGTSYSLTISTMEAEDAATYYCQQWSSSPFTFGSGTKLIIK
notes: Intact murine antibody from hybridoma; also called mu1G8; parental mu1G8
How did the Kd [2] turn out when B3 was run?
The Kd was ~5 nM.
